Experimental data published in the supplement of paper PMC6379048.

Tests used:
Test in all cases: Kd (EC50 corrected by depletion factor)
DHX15 = DHX15 (UniProt O43143)
Method: (§1)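 Competition-binding assay: HEK293-FT cell lysate (2.5 mg protein) pre-incubated 1 h at 4°C with free motif-containing RNA oligos (0 to 30 µM, 12 doses), then pulled down with the same 5'-amino-C6 RNA oligos immobilised on NHS-Sepharose beads (30 min, 4°C). Bound proteins were quantified by label-free LC-MS/MS and normalised to the water control. EC50 came from a four-parameter log-logistic fit; Kd = EC50 x depletion factor. Random/reversed control probes are dropped.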

DHX9 = DHX9 (UniProt Q08211)
Method: as §1

SSB = target: T1, SSB (UniProt P05455)
T1 sequence: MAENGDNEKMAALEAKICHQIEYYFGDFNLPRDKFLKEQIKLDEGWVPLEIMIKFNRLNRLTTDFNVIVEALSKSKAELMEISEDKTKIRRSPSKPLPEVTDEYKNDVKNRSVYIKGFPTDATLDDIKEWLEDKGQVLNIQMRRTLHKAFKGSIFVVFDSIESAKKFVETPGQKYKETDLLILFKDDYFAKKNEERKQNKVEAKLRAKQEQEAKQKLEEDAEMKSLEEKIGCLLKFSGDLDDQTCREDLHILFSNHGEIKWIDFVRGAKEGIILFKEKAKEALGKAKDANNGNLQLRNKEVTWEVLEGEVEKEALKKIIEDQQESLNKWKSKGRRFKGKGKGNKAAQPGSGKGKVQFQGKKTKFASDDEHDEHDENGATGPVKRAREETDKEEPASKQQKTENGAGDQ
Method: as §1

SKIV2L2 = target: T2, SKIV2L2 (UniProt P42285)
T2 sequence: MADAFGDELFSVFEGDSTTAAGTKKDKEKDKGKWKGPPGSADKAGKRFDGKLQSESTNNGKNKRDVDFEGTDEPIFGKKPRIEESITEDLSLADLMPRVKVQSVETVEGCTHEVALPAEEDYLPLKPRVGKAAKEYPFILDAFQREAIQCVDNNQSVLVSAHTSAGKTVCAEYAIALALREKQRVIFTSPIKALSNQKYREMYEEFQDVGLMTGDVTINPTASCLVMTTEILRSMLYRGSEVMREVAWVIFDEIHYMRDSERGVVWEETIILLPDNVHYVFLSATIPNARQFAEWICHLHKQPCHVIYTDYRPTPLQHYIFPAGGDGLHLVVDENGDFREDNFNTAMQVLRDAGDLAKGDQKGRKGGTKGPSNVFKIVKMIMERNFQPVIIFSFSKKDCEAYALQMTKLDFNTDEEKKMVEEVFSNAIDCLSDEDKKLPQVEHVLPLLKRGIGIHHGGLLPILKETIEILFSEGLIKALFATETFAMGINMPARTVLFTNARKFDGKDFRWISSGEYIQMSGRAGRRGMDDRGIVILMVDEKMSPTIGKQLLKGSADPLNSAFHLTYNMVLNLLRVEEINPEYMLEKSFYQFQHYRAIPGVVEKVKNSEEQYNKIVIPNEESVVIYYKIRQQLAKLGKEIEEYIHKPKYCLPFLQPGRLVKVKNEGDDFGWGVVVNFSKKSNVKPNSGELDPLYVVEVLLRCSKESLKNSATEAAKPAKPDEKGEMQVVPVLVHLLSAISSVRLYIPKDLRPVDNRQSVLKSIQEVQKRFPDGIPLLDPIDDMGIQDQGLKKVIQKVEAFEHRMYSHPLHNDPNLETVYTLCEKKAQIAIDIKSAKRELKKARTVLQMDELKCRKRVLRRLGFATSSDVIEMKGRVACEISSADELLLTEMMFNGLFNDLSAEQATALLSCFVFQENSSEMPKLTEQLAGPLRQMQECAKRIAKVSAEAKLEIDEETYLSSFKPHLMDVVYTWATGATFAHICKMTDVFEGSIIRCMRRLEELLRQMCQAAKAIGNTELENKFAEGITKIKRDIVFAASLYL
Method: as §1

XRN2 = target: T3, XRN2 (UniProt Q9H0D6)
T3 sequence: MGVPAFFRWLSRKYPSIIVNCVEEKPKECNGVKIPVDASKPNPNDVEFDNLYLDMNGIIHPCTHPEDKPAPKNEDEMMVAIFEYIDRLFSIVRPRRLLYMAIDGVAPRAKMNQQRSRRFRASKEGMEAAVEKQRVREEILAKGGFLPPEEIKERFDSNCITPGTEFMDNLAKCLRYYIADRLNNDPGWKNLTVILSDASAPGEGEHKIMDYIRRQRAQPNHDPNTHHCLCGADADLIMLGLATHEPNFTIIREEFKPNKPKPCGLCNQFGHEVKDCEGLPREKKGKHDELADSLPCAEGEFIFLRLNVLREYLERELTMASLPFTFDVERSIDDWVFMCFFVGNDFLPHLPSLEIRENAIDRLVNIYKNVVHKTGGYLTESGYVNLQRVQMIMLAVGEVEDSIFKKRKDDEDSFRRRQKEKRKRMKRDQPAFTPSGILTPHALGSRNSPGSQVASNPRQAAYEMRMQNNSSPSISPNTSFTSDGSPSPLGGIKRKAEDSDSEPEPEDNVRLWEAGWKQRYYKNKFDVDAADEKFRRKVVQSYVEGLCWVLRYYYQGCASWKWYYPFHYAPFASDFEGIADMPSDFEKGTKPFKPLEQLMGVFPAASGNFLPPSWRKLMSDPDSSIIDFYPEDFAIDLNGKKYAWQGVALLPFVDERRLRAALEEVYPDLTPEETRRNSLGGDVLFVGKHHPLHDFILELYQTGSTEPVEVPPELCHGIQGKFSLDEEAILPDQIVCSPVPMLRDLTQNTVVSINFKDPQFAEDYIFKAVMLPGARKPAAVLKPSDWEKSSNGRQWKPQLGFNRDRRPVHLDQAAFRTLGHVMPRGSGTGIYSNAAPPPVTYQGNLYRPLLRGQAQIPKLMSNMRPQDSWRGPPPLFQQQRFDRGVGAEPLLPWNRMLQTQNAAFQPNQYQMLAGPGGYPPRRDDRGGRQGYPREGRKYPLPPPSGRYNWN
Method: as §1

Sequence of DHX9 (Q08211 whole entry): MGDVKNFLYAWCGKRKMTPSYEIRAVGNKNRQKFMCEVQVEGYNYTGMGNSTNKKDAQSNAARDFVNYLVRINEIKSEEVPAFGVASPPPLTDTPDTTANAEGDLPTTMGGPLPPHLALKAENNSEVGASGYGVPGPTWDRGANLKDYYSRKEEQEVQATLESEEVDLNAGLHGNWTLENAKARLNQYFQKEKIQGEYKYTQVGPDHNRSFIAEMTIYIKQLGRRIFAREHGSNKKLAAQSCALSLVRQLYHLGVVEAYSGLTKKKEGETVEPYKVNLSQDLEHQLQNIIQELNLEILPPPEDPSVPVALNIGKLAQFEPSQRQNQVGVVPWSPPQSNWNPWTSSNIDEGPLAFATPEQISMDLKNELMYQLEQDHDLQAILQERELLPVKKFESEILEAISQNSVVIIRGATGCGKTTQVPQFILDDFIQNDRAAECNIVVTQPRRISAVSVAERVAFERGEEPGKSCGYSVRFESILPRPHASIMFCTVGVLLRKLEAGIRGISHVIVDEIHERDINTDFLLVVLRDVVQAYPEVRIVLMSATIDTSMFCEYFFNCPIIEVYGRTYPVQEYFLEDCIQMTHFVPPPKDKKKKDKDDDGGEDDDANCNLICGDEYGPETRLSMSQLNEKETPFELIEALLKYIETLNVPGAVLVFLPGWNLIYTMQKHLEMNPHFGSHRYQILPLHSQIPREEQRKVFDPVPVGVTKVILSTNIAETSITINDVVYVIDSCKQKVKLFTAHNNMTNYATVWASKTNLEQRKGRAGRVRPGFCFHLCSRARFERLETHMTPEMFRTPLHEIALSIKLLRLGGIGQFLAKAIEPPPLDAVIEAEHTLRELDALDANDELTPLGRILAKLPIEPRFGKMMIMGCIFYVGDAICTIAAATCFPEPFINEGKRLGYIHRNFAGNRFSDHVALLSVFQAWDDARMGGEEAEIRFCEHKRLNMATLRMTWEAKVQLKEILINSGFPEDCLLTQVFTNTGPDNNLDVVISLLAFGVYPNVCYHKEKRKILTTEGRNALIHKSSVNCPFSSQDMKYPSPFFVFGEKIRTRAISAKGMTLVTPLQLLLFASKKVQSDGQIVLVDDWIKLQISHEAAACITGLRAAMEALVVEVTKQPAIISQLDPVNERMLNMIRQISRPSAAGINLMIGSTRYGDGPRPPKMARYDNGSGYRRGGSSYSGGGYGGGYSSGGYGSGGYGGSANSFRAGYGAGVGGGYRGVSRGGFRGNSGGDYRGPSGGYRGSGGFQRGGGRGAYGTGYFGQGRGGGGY
Sequence of DHX15 (O43143 whole entry): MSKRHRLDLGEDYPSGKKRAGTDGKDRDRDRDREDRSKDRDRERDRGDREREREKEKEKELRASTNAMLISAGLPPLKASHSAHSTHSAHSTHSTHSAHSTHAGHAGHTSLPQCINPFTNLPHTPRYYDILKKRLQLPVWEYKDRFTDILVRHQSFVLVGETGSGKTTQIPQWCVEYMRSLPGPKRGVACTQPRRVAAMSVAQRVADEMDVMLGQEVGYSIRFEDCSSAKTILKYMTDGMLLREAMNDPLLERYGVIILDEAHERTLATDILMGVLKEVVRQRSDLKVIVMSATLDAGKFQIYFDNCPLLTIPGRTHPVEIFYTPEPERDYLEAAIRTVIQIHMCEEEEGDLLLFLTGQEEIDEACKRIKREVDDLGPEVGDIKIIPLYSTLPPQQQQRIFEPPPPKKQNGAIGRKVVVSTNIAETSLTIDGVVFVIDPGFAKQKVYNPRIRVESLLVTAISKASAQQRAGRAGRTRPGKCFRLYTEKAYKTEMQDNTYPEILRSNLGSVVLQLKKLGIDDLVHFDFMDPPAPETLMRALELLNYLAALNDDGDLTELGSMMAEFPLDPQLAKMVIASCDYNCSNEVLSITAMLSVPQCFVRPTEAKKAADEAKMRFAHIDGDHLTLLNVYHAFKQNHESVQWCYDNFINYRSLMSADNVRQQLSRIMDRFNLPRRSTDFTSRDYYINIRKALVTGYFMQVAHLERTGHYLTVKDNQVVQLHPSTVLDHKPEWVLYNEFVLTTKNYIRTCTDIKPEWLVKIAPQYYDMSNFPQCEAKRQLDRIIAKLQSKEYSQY

Sequence | Kd (DHX15) [nM] | Kd (DHX9) [nM] | Kd (SSB) [nM] | Kd (SKIV2L2) [nM] | Kd (XRN2) [nM]
AAUAAA | 446 | 1840 | 365 | 393 | 354
CUGUCCU | 358 | 155 | 1060 | 2450 | 80.8
UAUUUAU | 157 | 1230 | 289 | 202 | 184
